According to the supplement of paper PMC10126150:
± gives the standard deviation of the averaged measurements.
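Also: ATP exposure 15 min at 22 °C before imaging.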

These sequences were tested on ATP (assay: switch fluorescence ratio, 500 uM ATP over buffer (Cy3 cluster intensity, sum of 5 cycles each) (fold (ratio)); higher = stronger signal-on switching upon ATP binding; sequences stand for … in TCGTCGGCAGCGTCAGATGTGTATAAGAGACAGTTTTTTTTTTTTTTTTTTTTTTTTT…TC). Settings: aptamer strand: ATP DNA aptamer (quencher-CACCTGGGGGAGTATTGCGGAGGAAGG + anchor), 100 nM annealed; ATP concentration: 500 uM.
Method in brief: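 Values give the fluorescence ratio for each switch-domain sequence, averaged from per-cluster ratios of summed target-cycle to summed buffer-cycle Cy3 intensity. The Cy3-labelled switching-strand clusters sat on a modified Illumina MiSeq flow-cell, were annealed to 100 nM quencher-labelled ATP aptamer, and were imaged in selection buffer, then after 15 min with 500 uM ATP at 22 °C. Five cycles ran with NaOH stripping and re-annealing between them, and clusters outside 100-1000 RFU were excluded.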
Work on TGCCAATATC yielded a switch fluorescence ratio of 1.7 ± 0.08. ACGTTGGCGT showed a switch fluorescence ratio of 0.966 ± 0.041. Work on CGGGTCGTGG yielded a switch fluorescence ratio of 0.996 ± 0.024. TCTTGGGGGG showed a switch fluorescence ratio of 1 ± 0.019. With CTACGTTGGA the switch fluorescence ratio was 1.03 ± 0.02. Sequence ACAGGTGGAA has a switch fluorescence ratio of 1.235 ± 0.01. Sequence AAAAAGTTTT has a switch fluorescence ratio of 0.985 ± 0.058. With TCTGCTAGTT the switch fluorescence ratio was 1.02 ± 0.021. With GACGTGAGGT the switch fluorescence ratio was 1.017 ± 0.0012. Work on TATGCCCAGA yielded a switch fluorescence ratio of 1.03 ± 0.041. AATGAGAGTG was tested, and the switch fluorescence ratio was 1 ± 0.035. Sequence ATTTCTAGAT has a switch fluorescence ratio of 1.024 ± 0.0093. TGTGGGGGTA showed a switch fluorescence ratio of 0.986 ± 0.034. TTGGGGGTCT gave a switch fluorescence ratio of 0.968 ± 0.044. In the case of TTCATAGTCG, the switch fluorescence ratio is reported as 0.98 ± 0.07. With ACGTTATGCT the switch fluorescence ratio was 1.17 ± 0.081. In the case of GAAATATTTT, the switch fluorescence ratio is reported as 0.996 ± 0.05. In the case of TGTATATTGG, the switch fluorescence ratio is reported as 0.995 ± 0.015. GCCCGGGGAC gave a switch fluorescence ratio of 1.18 ± 0.12. TTTTAGAGTT gave a switch fluorescence ratio of 0.982 ± 0.013. Sequence GTTTCGAGGT has a switch fluorescence ratio of 0.96 ± 0.012. CGCTGGCATG gave a switch fluorescence ratio of 1 ± 0.032. With GGCTATGGGG the switch fluorescence ratio was 1 ± 0.013. In the case of AATGTTCACG, the switch fluorescence ratio is reported as 1.02 ± 0.019. TTTTTGAGTA was tested, and the switch fluorescence ratio was 1.02 ± 0.03. TATGGGGGGC gave a switch fluorescence ratio of 0.983 ± 0.047. Sequence AATTGTTGCT has a switch fluorescence ratio of 0.99301 ± 0.00023. Sequence TTTGGTATGT has a switch fluorescence ratio of 1.03 ± 0.057. For TATCATGCGC, the switch fluorescence ratio was 1.02 ± 0.054. In the case of CATAATGAAG, the switch fluorescence ratio is reported as 1.01 ± 0.014. With CATGTAGCGT the switch fluorescence ratio was 1 ± 0.027. For TATTTTCGGA, the switch fluorescence ratio was 0.97 ± 0.039. For CGGGTAGGCT, the switch fluorescence ratio was 1.02 ± 0.057. TTAAGATCAT gave a switch fluorescence ratio of 0.969 ± 0.041. CCGGGGGGGG was tested, and the switch fluorescence ratio was 1.1 ± 0.17. With TTTTAAAGTC the switch fluorescence ratio was 1.02 ± 0.03. Sequence GCAAGATTGA has a switch fluorescence ratio of 0.999 ± 0.044. CCCATTTTGC was tested, and the switch fluorescence ratio was 1.032 ± 0.0067. Work on TGGGATGGAA yielded a switch fluorescence ratio of 1.004 ± 0.0031. With GTGCGATTTA the switch fluorescence ratio was 0.992 ± 0.034. Sequence GATGAAAGAT has a switch fluorescence ratio of 1.003 ± 0.0085. ATTTCGGTCA was tested, and the switch fluorescence ratio was 0.9919 ± 0.0066. In the case of GAATATCTGG, the switch fluorescence ratio is reported as 0.97 ± 0.011. TTCTAAGTA was tested, and the switch fluorescence ratio was 1.021 ± 0.0044. In the case of AGCGTGTGCG, the switch fluorescence ratio is reported as 0.989 ± 0.055. TTGTTAGAAT was tested, and the switch fluorescence ratio was 1.038 ± 0.0047. ATATGATTAG was tested, and the switch fluorescence ratio was 0.993 ± 0.021. TGCTGGGGAA gave a switch fluorescence ratio of 1.01 ± 0.028. With AGGAAGTGTG the switch fluorescence ratio was 0.9869 ± 0.0079. GCTTCGTTGG showed a switch fluorescence ratio of 1.17 ± 0.18. GGCATATGTT showed a switch fluorescence ratio of 1 ± 0.021. Work on GATGTAACAA yielded a switch fluorescence ratio of 0.998 ± 0.035. CTACAAAAAA showed a switch fluorescence ratio of 1.02 ± 0.034. With ATGATCTTCC the switch fluorescence ratio was 2.3 ± 0.091. Work on CAGACTGGTT yielded a switch fluorescence ratio of 1.011 ± 0.0067. In the case of AAAAATCTCT, the switch fluorescence ratio is reported as 1.02 ± 0.033. Sequence TGGATCAAGT has a switch fluorescence ratio of 1.01 ± 0.06. TTACATGTTG was tested, and the switch fluorescence ratio was 1.04 ± 0.04. For CTTTTTTGAT, the switch fluorescence ratio was 0.9831 ± 0.0061. In the case of AAGATTTTAC, the switch fluorescence ratio is reported as 1.01 ± 0.019. For AGAAAGGGTT, the switch fluorescence ratio was 0.98 ± 0.022. For GGGAGTATAT, the switch fluorescence ratio was 0.992 ± 0.016. Sequence TGGGGCCTTA has a switch fluorescence ratio of 0.952 ± 0.018. Sequence TCAAGGCCTG has a switch fluorescence ratio of 1.01 ± 0.042. In the case of GTGATAGATG, the switch fluorescence ratio is reported as 1.013 ± 0.01. TTATTTAGGG gave a switch fluorescence ratio of 0.991 ± 0.0055. GCTTGCCGGT was tested, and the switch fluorescence ratio was 1 ± 0.037. With CGGGGAATAG the switch fluorescence ratio was 1.16 ± 0.094. For AGTGGTGGTT, the switch fluorescence ratio was 0.977 ± 0.057. Sequence TGTGCGACGG has a switch fluorescence ratio of 0.989 ± 0.021. TTGTTTAGGT gave a switch fluorescence ratio of 1 ± 0.03. With AGGTACTCCG the switch fluorescence ratio was 1.09 ± 0.015. For GGGCATTGCG, the switch fluorescence ratio was 0.9667 ± 0.0091. In the case of ACCCGAGCAC, the switch fluorescence ratio is reported as 2.13 ± 0.054. GCCTTGGACT showed a switch fluorescence ratio of 0.976 ± 0.027. ATATTAAAGT gave a switch fluorescence ratio of 1.038 ± 0.0047. Sequence AAGAAGGAGC has a switch fluorescence ratio of 0.974 ± 0.039. ATACCATTTC gave a switch fluorescence ratio of 1.03 ± 0.049. Work on CTGTTCTAGT yielded a switch fluorescence ratio of 0.963 ± 0.045. For TCCTCAAGTT, the switch fluorescence ratio was 1.23 ± 0.015. For TTTTTTGTAC, the switch fluorescence ratio was 1.06 ± 0.037. Sequence TGAGTTGATT has a switch fluorescence ratio of 1.01 ± 0.069. TGATTATTTT was tested, and the switch fluorescence ratio was 0.991 ± 0.016. TTGGTAGAAA gave a switch fluorescence ratio of 0.982 ± 0.024. Sequence TAGGTTATTA has a switch fluorescence ratio of 0.9988 ± 0.0097.
